These results are taken from patent US20240261333A1 (published 2024).

Assay in all cases: co-IP with anti-FLAG, C-FLAG B3GNT2, mass spectrometry
The target of one experiment is RPL23 (human, UniProt P62829 1-140).
A further experiment has as its target T1, CHCHD3 (human, UniProt Q9NX63 2-227, limits assumed).
T1 construct: also called NP_001304106.1 (+1)
T1 sequence (looked up): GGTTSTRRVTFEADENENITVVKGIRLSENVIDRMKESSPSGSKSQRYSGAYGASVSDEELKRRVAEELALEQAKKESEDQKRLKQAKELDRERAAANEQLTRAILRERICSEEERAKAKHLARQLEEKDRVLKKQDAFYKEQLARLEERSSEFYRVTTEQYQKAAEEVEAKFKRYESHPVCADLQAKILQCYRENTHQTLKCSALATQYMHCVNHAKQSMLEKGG

In a further experiment the target is T2, SBSN (human, UniProt Q6UWP8 26-590).
T2 construct: also called NP_00159506.1 (+2)
T2 sequence (looked up): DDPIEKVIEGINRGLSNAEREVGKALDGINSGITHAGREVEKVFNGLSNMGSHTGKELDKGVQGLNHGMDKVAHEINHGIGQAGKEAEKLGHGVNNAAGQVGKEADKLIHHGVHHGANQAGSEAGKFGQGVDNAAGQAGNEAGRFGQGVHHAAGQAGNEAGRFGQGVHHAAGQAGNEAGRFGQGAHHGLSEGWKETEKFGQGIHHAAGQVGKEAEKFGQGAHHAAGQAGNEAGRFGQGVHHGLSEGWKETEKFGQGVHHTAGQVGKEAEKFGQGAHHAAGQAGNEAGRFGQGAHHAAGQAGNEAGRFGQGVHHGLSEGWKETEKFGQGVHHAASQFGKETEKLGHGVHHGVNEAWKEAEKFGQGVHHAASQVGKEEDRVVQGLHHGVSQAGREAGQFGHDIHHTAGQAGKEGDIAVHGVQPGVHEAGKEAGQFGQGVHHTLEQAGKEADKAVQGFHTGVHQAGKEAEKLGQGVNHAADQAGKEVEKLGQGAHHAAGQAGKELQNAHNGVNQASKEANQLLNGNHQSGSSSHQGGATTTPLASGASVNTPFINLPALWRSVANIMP

The next experiment concerns the target T3, PSMA3 (human, UniProt P25788 2-255).
T3 construct: also called NP_002779.1 (+1)
T3 sequence (looked up): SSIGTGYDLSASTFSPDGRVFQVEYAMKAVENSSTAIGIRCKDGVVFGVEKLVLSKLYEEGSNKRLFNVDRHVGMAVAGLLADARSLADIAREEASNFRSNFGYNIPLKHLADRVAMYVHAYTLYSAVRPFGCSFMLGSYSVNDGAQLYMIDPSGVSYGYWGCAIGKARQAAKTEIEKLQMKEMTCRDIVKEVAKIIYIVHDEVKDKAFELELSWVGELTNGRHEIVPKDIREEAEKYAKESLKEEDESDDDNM

The next experiment addresses T4, JUP (human, UniProt P14923 1-745).
T4 construct: also called NP_001339702.1
T4 sequence (looked up): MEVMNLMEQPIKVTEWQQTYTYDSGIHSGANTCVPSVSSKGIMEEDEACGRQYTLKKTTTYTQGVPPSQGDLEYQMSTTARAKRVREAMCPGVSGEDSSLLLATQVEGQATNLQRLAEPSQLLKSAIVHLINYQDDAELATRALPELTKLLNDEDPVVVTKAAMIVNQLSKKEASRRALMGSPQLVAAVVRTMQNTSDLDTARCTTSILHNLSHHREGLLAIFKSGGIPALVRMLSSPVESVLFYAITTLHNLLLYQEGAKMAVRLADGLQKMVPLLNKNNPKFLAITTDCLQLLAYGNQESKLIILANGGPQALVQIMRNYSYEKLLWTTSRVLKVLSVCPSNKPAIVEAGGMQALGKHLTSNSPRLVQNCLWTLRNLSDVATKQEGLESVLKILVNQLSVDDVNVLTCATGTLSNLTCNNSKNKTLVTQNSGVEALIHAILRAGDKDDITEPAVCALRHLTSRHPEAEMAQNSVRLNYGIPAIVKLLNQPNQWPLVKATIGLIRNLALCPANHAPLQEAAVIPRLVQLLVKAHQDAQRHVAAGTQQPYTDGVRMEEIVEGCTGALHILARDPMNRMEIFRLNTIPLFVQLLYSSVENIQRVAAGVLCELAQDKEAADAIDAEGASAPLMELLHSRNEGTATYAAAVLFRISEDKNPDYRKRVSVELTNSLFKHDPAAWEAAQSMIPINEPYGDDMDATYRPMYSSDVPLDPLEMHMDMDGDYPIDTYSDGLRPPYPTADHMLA

The next experiment concerns the target RPL17 (human, UniProt P18621 2-184).

B1: C-terminal FLAG tagged B3GNT2 (enzyme, human, UniProt Q9NY97 1-397, looked up)
chain: MSVGRRRIKLLGILMMANVFIYFIMEVSKSSSQEKNGKGEVIIPKEKFWKISTPPEAYWNREQEKLNRQYNPILSMLTNQTGEAGRLSNISHLNYCEPDLRVTSVVTGFNNLPDRFKDFLLYLRCRNYSLLIDQPDKCAKKPFLLLAIKSLTPHFARRQAIRESWGQESNAGNQTVVRVFLLGQTPPEDNHPDLSDMLKFESEKHQDILMWNYRDTFFNLSLKEVLFLRWVSTSCPDTEFVFKGDDDVFVNTHHILNYLNSLSKTKAKDLFIGDVIHNAGPHRDKKLKYYIPEVVYSGLYPPYAGGGGFLYSGHLALRLYHITDQVHLYPIDDVYTGMCLQKLGLVPEKHKGFRTFDIEEKNKNNICSYVDLMLVHSRKPQEMIDIWSQLQSAHLKC
notes: FLAG-tagged ORF overexpressed in cells; pulled down from lysate with mouse anti-FLAG; also called C-FLAG B3GNT2; C-term flag; not shown: C-terminal FLAG tag
Consider B1, for which the “co-IP mass spectrometry count” value in the experiment with RPL23 is 6; in the experiment with CHCHD3, 15.

B2: C-terminal FLAG tagged B3GNT2 (enzyme, human, UniProt Q9NY97 1-397, looked up)
chain: B1 chain
notes: FLAG-tagged ORF overexpressed in A375 cells; pulled down from the lysate with mouse anti-FLAG; also called C-FLAG B3GNT2; C-term flag; not shown: C-terminal FLAG tag
As for B2, the “co-IP/MS count, C-term flag” value with SBSN was determined as 25; with PSMA3, 0; in the experiment with JUP, 43; with RPL17, 0.
